T1: Norwalk virus (NV, GI.1) recombinant virus-like particles (capsid protein VP1) (Norwalk virus, UniProt Q83884 1-530)
T1 sequence: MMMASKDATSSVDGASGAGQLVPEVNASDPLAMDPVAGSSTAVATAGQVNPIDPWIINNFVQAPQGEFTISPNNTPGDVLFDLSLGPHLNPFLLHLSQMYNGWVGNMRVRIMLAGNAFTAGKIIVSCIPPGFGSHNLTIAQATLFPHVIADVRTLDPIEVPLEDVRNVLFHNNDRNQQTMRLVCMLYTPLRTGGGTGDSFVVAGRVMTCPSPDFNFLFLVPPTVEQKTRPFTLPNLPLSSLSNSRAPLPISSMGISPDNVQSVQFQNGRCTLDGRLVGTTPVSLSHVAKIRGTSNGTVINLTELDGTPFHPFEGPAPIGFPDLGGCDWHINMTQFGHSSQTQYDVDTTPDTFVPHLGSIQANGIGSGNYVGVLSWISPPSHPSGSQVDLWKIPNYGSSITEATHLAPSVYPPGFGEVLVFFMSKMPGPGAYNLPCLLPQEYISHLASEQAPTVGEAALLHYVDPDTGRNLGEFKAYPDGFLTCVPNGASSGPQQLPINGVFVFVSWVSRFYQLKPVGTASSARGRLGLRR


Assays:
[1] = biological target: T2, bovine serum albumin (bovine, UniProt P02769 25-607); experiment: ELISA, antigen on the solid phase, soluble Fab
T2 construct: Control antigen; also called BSA

[2] = biological target: MD145 virus-like particle (GII.4, capsid protein VP1) (Norovirus GII.4 strain MD145-12)
[3] = biological target: MD145 virus-like particle (GII.4, capsid protein VP1) (Norovirus GII.4 strain MD145-12); experiment: SPR (Biacore 1000), Fab on MD145 virus-like particle
[4] = biological target: T2, bovine serum albumin; experiment: ELISA, antigen coated directly on the plate
[5] = biological target: T1, Norwalk virus (NV, GI.1) recombinant …

T2 sequence (P02769 25-607 limits assumed): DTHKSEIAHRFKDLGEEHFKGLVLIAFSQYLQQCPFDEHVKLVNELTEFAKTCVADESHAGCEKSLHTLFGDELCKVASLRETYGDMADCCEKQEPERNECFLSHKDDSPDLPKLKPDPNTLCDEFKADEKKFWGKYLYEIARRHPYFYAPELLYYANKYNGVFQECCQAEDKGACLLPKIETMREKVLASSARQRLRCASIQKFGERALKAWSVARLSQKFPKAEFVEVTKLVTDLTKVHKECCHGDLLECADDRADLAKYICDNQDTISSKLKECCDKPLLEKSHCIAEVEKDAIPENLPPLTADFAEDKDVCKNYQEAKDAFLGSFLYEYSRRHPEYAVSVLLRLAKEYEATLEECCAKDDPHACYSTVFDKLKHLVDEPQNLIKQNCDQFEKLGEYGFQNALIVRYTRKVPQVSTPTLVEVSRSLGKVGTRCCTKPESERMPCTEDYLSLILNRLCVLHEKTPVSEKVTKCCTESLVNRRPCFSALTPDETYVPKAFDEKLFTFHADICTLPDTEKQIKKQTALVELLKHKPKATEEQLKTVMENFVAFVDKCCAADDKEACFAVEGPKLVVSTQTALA

Binder | Kd [3] | koff [3] | kon [3] | further results
anti-NV Fab F11 (Fab, V domains shown) VH: EVQLVETGGSLVQPGGSLRLSCAASGFSVSIYHMSWVRQAPGKGLEWVSLLYSGGSTYYADSVKGRFTISRDNSKNTLYLQMNSLRAEDTAVYYCARDYSGSWVGDEARSYYYYYYMDVWGKGTTVTVS VL: ELQVTQSPSSLSASVGDRVTITCQASQDISYYLNWYQQRPGKVPKLLIYSASYLHSGVPSRFSGSGSGTDFTLTISSLQPEDVATYYCQRTYNAPYTFGQGTKVEIKR |  |  |  | binding result [1]: no binding
anti-NoV GII.4 mAb D4 (IgG) (antibody, V domains shown) VH: EVQLVESGPGLVKPSETLSLTCAVSGASIRRANWWGWIRQAPGKGLEWLGSIFINAGTIYNPSLTGRVTVSADTSKNLFSLKLGSVTAADTAVYYCVKSYGDGDDNYNSFYYYMDVWGKGTSVIVSS VL: DVVMTQSPSSLSASVGDRVTITCRASQDIRNNLAWYQHKPGKAPKLLIYYASKLQSGVPLRFSGSGSGTDYTLFISSLQPEDFATYYCQQYKTDTPYSFGQGTKVDIKR |  |  |  | IC50 (read off the curve) [2]: 1 µg/mL
anti-GII.4 NV Fab D4 (Fab, V domains shown) VH: EVQLVESGPGLVKPSETLSLTCAVSGASIRRANWWGWIRQAPGKGLEWLGSIFINAGTIYNPSLTGRVTVSADTSKNLFSLKLGSVTAADTAVYYCVKSYGDGDDNYNSFYYYMDVWGKGTSVIVSS VL: DVVMTQSPSSLSASVGDRVTITCRASQDIRNNLAWYQHKPGKAPKLLIYYASKLQSGVPLRFSGSGSGTDYTLFISSLQPEDFATYYCQQYKTDTPYSFGQGTKVDIKR | 0.121 nM | 0.000178 s⁻¹ | 1.47e+06 M⁻¹ s⁻¹ | 
anti-GII.4 NV Fab C9 (Fab, V domains shown) VH: EVQLEESGGVLVKPGGSLRLSCAASGFTFSSHAMHWVRQAPGKGLEWVAIINSGHRADYADSVKDRFTISRDNSKNTLYLQMDSLRPEDTAFYYCAREGDQQDVAD VL: ELTQSPSTLSASVGDRVTITCRASEDIMSYLAWYQQKPAKAPRLLIYYASSLQSGVPSRFSGSGSGTEFTLTISSLQPEDFATYYCQQLHTFPITFGPGTRLDIKRT | 27.7 nM | 0.00382 s⁻¹ | 138000 M⁻¹ s⁻¹ | 
anti-NV Fab E5 (Fab, V domains shown, also called ES [sic]) VH: EVQLEQSGGGLIKPGGSLRLSCAASGFTFTKYVMHWVRQAPEKGLQWVSAIGGSGGSAWYADSVKGRFTISRDNSKNTLYLQMNSLRAEDTAVYYCARDHARYSGYNSPHEVDSWGQGTLVAVS VL: ELELTQSPSSLSASVGDRVTITCRASQGISNYLAWYQQKPGKVPKLLIYAASTLQSGVPSRFSGSGSGTDFTLTISSLQPEDVATYYCQKYNSAPLTFGGGTKVEIKR |  |  |  | binding result [1]: no binding
anti-GII.4 NV Fab B72 (Fab, V domains shown) VH: EVQLEQSGAEVKKPGSSVKVSCKISGGTFSRHPISWVRQAPGQGLLWMGAIILRAGTTKYEQRFQGRITITADESTGTAYMELHSLTSEDTGLYFCATDRMGTFDELLFDSWGQGTLVTVSS VL: ELQMTQSPASLSASVGDRVTITCRASQGIRNNLGWYQQKPGKPPKLLIYAASTLQSGVPSRFSGSGSGTGFTLTISSLQPEDFATYYCLQDYDFPLTFGGGTKVEIKR | 0.351 nM | 5.66e-05 s⁻¹ | 161000 M⁻¹ s⁻¹ | 
anti-NV Fab D8 (Fab, V domains shown) VH: EVQLEESGGGLVQPGGSLRVSCAASGFPFNGYWIHWVRQAPGKGLEWVSRVNSDGRITNFADSVMGRFTMSRDNAKSTVYLQMNSLRAEDTAMYYCSRGGYTGYPEGHWGQGTLVTVS VL: ELQMTQSPSSLSAAVGDSVTITCRASQGISIHLAWYQQKPGKVPNLLIYAASTLQSGVPSRFSGSGSGTDFTLTINSLQPEVFATYYCQKYDSAPFTFGPGTKVDIKR |  |  |  | binding result [4]: no binding
anti-NV IgG G4 (antibody, V domains shown) VH: EVQLEESGGGLVKPGGSLRLSCAASGFTFSHYVMYWVRQAPEKGLEWVSTISGSGSSTWYPDSVKGRFTVSRDNSKNTLYLQMNSLRGDDTAVYYCARLQGQLVYWGLGTLVTVS VL: ELQMTQSPSTLSASVGDRVTITCRASQGISSWLAWYQQKPGRAPKLLIYKSSTLESGVPSRFSGSGSGTEFTLTISSLQPDDFATYFCQQYSSNPPLTFGGGTKVEIKR |  |  |  | IC50 [5]: ~2.8 nM
anti-NoV GII.4 mAb G3 (IgG) (antibody, V domains shown) VH: EVQLEQSGGGLVKPGGSLRLSCAGSGFSFSAHTINWVRQAPGKGLEWVGFIRSQAQGGTREYAASVKGRIILSRDDSENSAYLQMNSLNTGDTAVYYCARDSSRGYYSYYLDVWGKGTTVTVSS VL: ELTQSPSSLSASVGDRVTITCRASQGISNRLNWYQQKPGKAPKLLIYDASSLESGVPSRFSGSGSGTDFTLTISSQQPEDFATYYCQQFNSYPLTFGGGTKVEIKR |  |  |  | IC50 (read off the curve) [2]: 1 µg/mL
anti-GII.4 NV Fab G3 (Fab, V domains shown) VH: EVQLEQSGGGLVKPGGSLRLSCAGSGFSFSAHTINWVRQAPGKGLEWVGFIRSQAQGGTREYAASVKGRIILSRDDSENSAYLQMNSLNTGDTAVYYCARDSSRGYYSYYLDVWGKGTTVTVSS VL: ELTQSPSSLSASVGDRVTITCRASQGISNRLNWYQQKPGKAPKLLIYDASSLESGVPSRFSGSGSGTDFTLTISSQQPEDFATYYCQQFNSYPLTFGGGTKVEIKR | 2.61 nM | 0.000421 s⁻¹ | 162000 M⁻¹ s⁻¹ | 
anti-NV Fab B7 (Fab, V domains shown) VH: EVQLEESGGDLVQPGGSLTLSCAASGFTFSRYWMSWVRQAPGKGPEWVASIKKDGSETFYADSVKGRFIISRDIAKTSLYLQMNSLRADDTAVYYCLRAWYSSAYDFWGQGTLVTVS VL: ELELTQSPSSLSASVGDRVTITCRASQSISNYLNWYQQKPGKAPNLLIYYASTLQSGVPSRFSGSGSGTDFTLTISSLQPEDFATYYCQHGYGAIAFGQGTRLEIKR |  |  |  | binding result [1]: no binding

From patent US20160009788A1 (UNITED STATES OF AMERICA AS REPRESENTED BY THE SECRETARY …, published 2016)
